Assay results reported in US20110189154.

T1: Tsa1 (S. cerevisiae 2-Cys peroxyredoxin), P34760
T1 chain: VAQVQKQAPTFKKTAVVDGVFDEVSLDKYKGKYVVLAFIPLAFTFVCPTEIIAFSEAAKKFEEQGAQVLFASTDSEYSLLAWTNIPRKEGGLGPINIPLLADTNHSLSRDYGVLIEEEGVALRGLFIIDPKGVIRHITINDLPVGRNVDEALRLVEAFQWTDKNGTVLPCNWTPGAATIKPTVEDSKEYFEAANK

B1: Srx1^Cys106S (S. cerevisiae Srx1 with Cys106 changed to serine) (protein)
chain: MSLQSNSVKPTEIPLSEIRRPLAPVLDPQKIDAMVATMKGIPTASKTCSLEQAEAAASAGELPPVDVLGVRVKGQTLYYAFGGCHRLQAYDRRARETQNAAFPVRSRVLPATPRQIRMYLGSSLDIE
B2: Srx1^Cys48S (S. cerevisiae Srx1 with Cys48 changed to serine) (protein)
chain: MSLQSNSVKPTEIPLSEIRRPLAPVLDPQKIDAMVATMKGIPTASKTSSLEQAEAAASAGELPPVDVLGVRVKGQTLYYAFGGCHRLQAYDRRARETQNAAFPVRCRVLPATPRQIRMYLGSSLDIE

Target: T1, Tsa1 (S. cerevisiae 2-Cys …)

Row | Protein | reduction of the Cys-SO2H form of Tsa1
1 | B1 | the other cysteine mutants have no effect for Srx1^Cys106S
2 | B2 | a minor effect for Srx1^Cys48S
